Km data for one protein are collected here from ChEMBL document CHEMBL1140664, “Asymmetrical ligand binding by abscisic acid 8'-hydroxylase” (Bioorg Med Chem, 2007).

Substrate in the data set: CC1=CC(=O)CC(C)(C)[C@@]1(O)/C=C/C(C)=C\C(=O)O
Kind of data set: Activity of Arabidopsis thaliana recombinant CYP707A3.

B1: Abscisic acid 8'-hydroxylase 3 (Arabidopsis thaliana) (protein)
chain: MDFSGLFLTLSAAALFLCLLRFIAGVRRSSSTKLPLPPGTMGYPYVGETFQLYSQDPNVFFAAKQRRYGSVFKTHVLGCPCVMISSPEAAKFVLVTKSHLFKPTFPASKERMLGKQAIFFHQGDYHSKLRKLVLRAFMPDAIRNMVPHIESIAQESLNSWDGTQLNTYQEMKTYTFNVALISILGKDEVYYREDLKRCYYILEKGYNSMPINLPGTLFHKAMKARKELAQILANILSKRRQNPSSHTDLLGSFMEDKAGLTDEQIADNIIGVIFAARDTTASVLTWILKYLADNPTVLEAVTEEQMAIRKDKKEGESLTWEDTKKMPLTYRVIQETLRAATILSFTFREAVEDVEYEGYLIPKGWKVLPLFRNIHHNADIFSDPGKFDPSRFEVAPKPNTFMPFGSGIHSCPGNELAKLEISVLIHHLTTKYRWSIVGPSDGIQYGPFALPQNGLPIALERKP
Turning to B1, the Km (as a rule, the concentration of substrate that gives half-maximal velocity) was 0.71 µM.
